According to the Human Domainome abundance scans (Beltran et al. 2025):
± gives the uncertainty stated by the source.

B1: 3'-5' exoribonuclease 1, residues 65 to 114; numbered along this chain, Q8IV48 (parent)
chain: VYKEIAITNGCINRMSKEELRAKLSEFKLETRGVKDVLKKRLKNYYKKQK

Variants of: B1
Assay: abundance fitness (aPCA) (normalised: wild type 0, dead -1); higher = more abundant; growth selection in yeast, the domain comes from the species named
Conditions: Homo sapiens

Point of comparison: R14V, abundance fitness -0.65 ± 0.036. Against it:
- I12L — higher, -0.389 ± 0.034
- I12P — within error, -0.716 ± 0.048
- I12Q — lower, -0.899 ± 0.066
- I12R — lower, -0.738 ± 0.042
- I12S — lower, -0.769 ± 0.04
- I12T — higher, -0.457 ± 0.046
- I12V — higher, -0.152 ± 0.039
- I12W — higher, -0.435 ± 0.043
- I12Y — within error, -0.699 ± 0.06
- N13A — higher, -0.487 ± 0.037
- N13D — higher, -0.259 ± 0.055
- N13E — higher, -0.446 ± 0.05
- N13F — lower, -0.961 ± 0.077
- N13I — the same, -0.65 ± 0.078
- N13K — higher, -0.376 ± 0.048
- N13L — lower, -0.914 ± 0.043
- N13M — lower, -0.801 ± 0.057
- N13P — lower, -0.949 ± 0.065
- N13Q — within error, -0.629 ± 0.051
- N13R — higher, -0.415 ± 0.035
- N13S — higher, -0.272 ± 0.038
- N13T — within error, -0.684 ± 0.051
- N13V — lower, -0.764 ± 0.041
- N13W — lower, -0.938 ± 0.049
- N13Y — higher, -0.437 ± 0.06
- R14A — higher, -0.115 ± 0.035
- R14C — higher, -0.315 ± 0.041
- R14D — higher, -0.308 ± 0.052
- R14E — higher, -0.359 ± 0.048
- R14F — lower, -0.881 ± 0.065
- R14G — higher, -0.15 ± 0.035
- R14H — higher, -0.166 ± 0.057
- R14I — within error, -0.724 ± 0.07
- R14L — higher, -0.43 ± 0.037
- R14M — higher, -0.298 ± 0.05
- R14N — higher, -0.151 ± 0.055
- R14P — lower, -0.908 ± 0.051
- R14Q — higher, -0.072 ± 0.048
- R14S — higher, -0.129 ± 0.036
- R14T — higher, -0.226 ± 0.045
- R14W — lower, -0.941 ± 0.053
- R14Y — lower, -0.826 ± 0.059
- M15A — within error, -0.678 ± 0.071
- M15C — lower, -0.826 ± 0.088
- M15D — lower, -0.981 ± 0.098
- M15E — lower, -1.05 ± 0.18
- M15F — higher, -0.544 ± 0.052
- M15G — lower, -0.975 ± 0.12
- M15H — lower, -0.873 ± 0.062
- M15I — within error, -0.635 ± 0.048
- M15K — higher, -0.326 ± 0.082
- M15L — higher, -0.317 ± 0.046
- M15N — lower, -0.789 ± 0.071
- M15P — lower, -1 ± 0.092
- M15Q — lower, -0.885 ± 0.12
- M15R — within error, -0.718 ± 0.081
- M15T — higher, -0.414 ± 0.057
- M15W — lower, -0.83 ± 0.12
- M15Y — within error, -0.645 ± 0.05
- S16A — higher, -0.445 ± 0.082
- S16D — higher, -0.336 ± 0.093
- S16E — within error, -0.746 ± 0.28
- S16F — within error, -0.701 ± 0.043
- S16G — higher, -0.425 ± 0.078
- S16I — lower, -0.828 ± 0.078
- S16K — higher, -0.026 ± 0.12
- S16L — lower, -0.838 ± 0.069
- S16M — lower, -1.08 ± 0.26
- S16N — higher, -0.041 ± 0.078
- S16P — higher, -0.264 ± 0.064
- S16Q — within error, -0.54 ± 0.11
- S16R — higher, -0.097 ± 0.061
- S16T — higher, -0.01 ± 0.059
- S16V — within error, -0.753 ± 0.081
- S16W — lower, -1.19 ± 0.29
- S16Y — higher, -0.461 ± 0.054
- K17A — higher, -0.209 ± 0.076
- K17C — higher, -0.113 ± 0.086
- K17D — within error, -0.759 ± 0.12
- K17E — within error, -0.518 ± 0.13
- K17F — within error, -0.646 ± 0.058
- K17G — within error, -0.603 ± 0.094
- K17H — within error, -0.591 ± 0.083
- K17I — higher, -0.329 ± 0.057
- K17L — within error, -0.592 ± 0.058
- K17N — higher, -0.378 ± 0.063
- K17Q — within error, -0.664 ± 0.13
- K17R — higher, -0.203 ± 0.07
- K17S — higher, -0.34 ± 0.051
- K17T — higher, -0.366 ± 0.056
- K17V — higher, -0.152 ± 0.061
- K17W — lower, -0.871 ± 0.17
- K17Y — within error, -0.651 ± 0.087
- E18A — higher, 0.079 ± 0.039
- E18C — higher, 0.072 ± 0.047
- E18D — higher, -0.034 ± 0.047
- E18F — higher, -0.007 ± 0.063
- E18G — higher, -0.023 ± 0.035
- E18H — higher, -0.043 ± 0.062
- E18I — higher, -0.003 ± 0.062
- E18K — higher, 0.058 ± 0.059
- E18L — higher, -0.025 ± 0.039
- E18M — higher, 0.012 ± 0.055
- E18N — higher, 0.047 ± 0.06
- E18P — higher, -0.008 ± 0.045
- E18Q — higher, 0.075 ± 0.064
- E18R — higher, 0.04 ± 0.037
- E18S — higher, 0.038 ± 0.039
- E18V — higher, 0.058 ± 0.037
- E18W — higher, -0.131 ± 0.049
- E18Y — higher, -0.179 ± 0.054
- E19A — higher, -0.147 ± 0.047
- E19C — higher, -0.382 ± 0.053
- E19D — higher, -0.107 ± 0.058
- E19F — lower, -0.784 ± 0.075
- E19G — higher, -0.375 ± 0.04
- E19I — within error, -0.699 ± 0.078
- E19K — higher, -0.324 ± 0.052
- E19L — higher, -0.517 ± 0.041
- E19N — higher, -0.299 ± 0.061
- E19P — lower, -1.01 ± 0.081
- E19Q — higher, 0.007 ± 0.044
- E19R — higher, -0.438 ± 0.042
- E19S — higher, -0.26 ± 0.04
- E19V — higher, -0.379 ± 0.038
- E19W — lower, -0.77 ± 0.061
- E19Y — within error, -0.652 ± 0.056
- L20A — lower, -0.912 ± 0.05
- L20C — lower, -0.879 ± 0.064
- L20D — lower, -1 ± 0.089
- L20E — lower, -0.78 ± 0.056
- L20F — higher, -0.512 ± 0.059
- L20G — lower, -0.942 ± 0.043
- L20K — lower, -0.956 ± 0.085
- L20M — higher, -0.282 ± 0.047
- L20P — lower, -0.961 ± 0.068
- L20Q — lower, -0.892 ± 0.081
- L20R — lower, -0.997 ± 0.052
- L20S — higher, -0.479 ± 0.044
- L20T — lower, -0.913 ± 0.06
- L20V — higher, -0.568 ± 0.038
- L20W — lower, -0.835 ± 0.044
- R21C — higher, -0.474 ± 0.049
- R21D — lower, -0.844 ± 0.073
- R21E — lower, -0.841 ± 0.058
- R21F — within error, -0.688 ± 0.062
- R21G — lower, -0.804 ± 0.039
- R21H — within error, -0.644 ± 0.075
- R21I — higher, -0.226 ± 0.073
- R21L — higher, -0.528 ± 0.039
- R21M — higher, -0.449 ± 0.053
- R21N — lower, -0.787 ± 0.069
- R21P — within error, -0.697 ± 0.071
- R21Q — higher, -0.221 ± 0.052
- R21S — higher, -0.518 ± 0.043
- R21T — higher, -0.473 ± 0.051
- R21V — higher, -0.203 ± 0.038
- R21W — lower, -0.833 ± 0.051
- R21Y — lower, -0.773 ± 0.075
- A22C — higher, -0.032 ± 0.044
- A22D — higher, -0.122 ± 0.051
- A22F — higher, -0.12 ± 0.049
- A22G — higher, -0.118 ± 0.034
- A22H — higher, -0.049 ± 0.063
- A22I — higher, -0.057 ± 0.069
- A22K — higher, 0.057 ± 0.06
